The text below walks through data of PMC8489103, “The collagen structure of C1q induces wound healing by engaging discoidin domain receptor 2” (Molecular Medicine, 2021).

B1: Recombinant human DDR2 possessing the ectodomain of DDR2 (Gln24-Arg399) with 6 × His-tag on C-terminal (domain or fragment, UniProt Q16832 24-399, looked up)
chain: QVNPAICRYPLGMSGGQIPDEDITASSQWSESTAAKYGRLDSEEGDGAWCPEIPVEPDDLKEFLQIDLHTLHFITLVGTQGRHAGGHGIEFAPMYKINYSRDGTRWISWRNRHGKQVLDGNSNPYDIFLKDLEPPIVARFVRFIPVTDHSMNVCMRVELYGCVWLDGLVSYNAPAGQQFVLPGGSIIYLNDSVYDGAVGYSMTEGLGQLTDGVSGLDDFTQTHEYHVWPGYDYVGWRNESATNGYIEIMFEFDRIRNFTTMKVHCNNMFAKGVKIFKEVQCYFRSEASEWEPNAISFPLVLDDVNPSARFVTVPLHHRMASAIKCQYHFADTWMMFSEITFQSDAAMYNNSEALPTSPMAPTTYDPMLKVDDSNTR
notes: discoidin domain receptor 2 (DDR2), human, ectodomain Gln24-Arg399; also called sDDR2; sDDR; source: bought: R&D Systems (2538-DR); not shown: 6xHis, C-terminal, kept

Where no end group is shown, it is not given here. The star is where a group is joined. Biotin = O=C1N[C@H]2[C@H](CS[C@H]2CCCCC(=O)*)N1

Conditions in all cases: both partners purified
In one experiment the target is T1, human C1q protein (human, UniProt P02745 23-245; P02746 28-253; P02747 29-245).
T1 construct: complement C1q subcomponent subunit A, human; complement C1q subcomponent subunit B, human; complement C1q subcomponent subunit C, human; the bought protein is purified from human serum; source: bought: Sigma-Aldrich (C1740); for stimulation of cells Complement Technologies (A099); copies: + +
T1 sequence (P02745 23-245, chain 1 of 3): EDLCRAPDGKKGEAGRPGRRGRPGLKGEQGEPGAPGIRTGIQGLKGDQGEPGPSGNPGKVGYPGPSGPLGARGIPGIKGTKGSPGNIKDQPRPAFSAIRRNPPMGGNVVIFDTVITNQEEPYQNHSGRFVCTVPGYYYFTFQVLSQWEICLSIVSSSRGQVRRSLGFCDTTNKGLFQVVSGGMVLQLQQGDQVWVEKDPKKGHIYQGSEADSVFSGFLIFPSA
T1 sequence (P02746 28-253, chain 2 of 3): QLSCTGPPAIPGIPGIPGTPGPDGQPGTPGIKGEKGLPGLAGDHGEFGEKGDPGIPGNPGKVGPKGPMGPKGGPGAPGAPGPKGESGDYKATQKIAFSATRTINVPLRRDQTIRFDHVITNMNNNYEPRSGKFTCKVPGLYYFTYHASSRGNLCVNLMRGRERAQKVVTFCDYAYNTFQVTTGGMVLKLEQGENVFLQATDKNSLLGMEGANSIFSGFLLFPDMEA
T1 sequence (P02747 29-245, chain 3 of 3): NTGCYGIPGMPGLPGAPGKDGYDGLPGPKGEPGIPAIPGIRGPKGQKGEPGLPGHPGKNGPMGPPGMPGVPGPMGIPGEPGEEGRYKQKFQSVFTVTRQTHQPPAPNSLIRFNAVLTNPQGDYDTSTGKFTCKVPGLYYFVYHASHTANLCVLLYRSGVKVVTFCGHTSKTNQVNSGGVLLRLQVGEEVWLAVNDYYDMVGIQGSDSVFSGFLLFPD
In words: SPR; Biacore 3000; sDDR2 immobilised on CM5 chip; C1q 0, 2.5, 5, 10, 20, 40 μg/mL as analyte; 10 mM HEPES pH 7.4, 25 °C, 10 μL/min. Background: Surface plasmon resonance follows binding to a sensor surface in real time, without labels.

The target in experiment [1] is B1. The experiment in a line: ELISA; C1qA peptide or control peptide coated at 8 μg/mL; sDDR2 (0.1, 0.5, 2, 8 μg/mL) added, RT, 2 h; detected with AP-conjugated anti-6x-His. (An ELISA detects its analyte on a solid surface through an enzyme-linked reagent.)
The target of experiment [2] is T2, NS0-derived recombinant mouse DDR2-Fc chimera protein (mouse, UniProt Q62371 24-399).
T2 construct: discoidin domain receptor 2 (DDR2), mouse, ectodomain Gln24-Arg399; also called 7479-DR; source: bought: R&D Systems (7479-DR), NS0-derived; not shown: Fc (mouse IgG2A, Glu98-Lys330), C-terminal, kept
T2 sequence (looked up): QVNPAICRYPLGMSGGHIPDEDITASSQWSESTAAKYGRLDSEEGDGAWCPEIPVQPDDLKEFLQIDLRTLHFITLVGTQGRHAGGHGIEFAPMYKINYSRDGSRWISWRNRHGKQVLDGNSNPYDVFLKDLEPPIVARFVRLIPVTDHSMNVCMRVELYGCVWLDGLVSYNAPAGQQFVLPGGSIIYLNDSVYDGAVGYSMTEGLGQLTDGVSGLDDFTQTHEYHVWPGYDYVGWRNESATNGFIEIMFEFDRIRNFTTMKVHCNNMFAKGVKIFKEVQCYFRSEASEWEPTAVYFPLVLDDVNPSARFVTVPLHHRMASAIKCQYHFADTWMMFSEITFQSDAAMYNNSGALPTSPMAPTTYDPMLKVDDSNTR
The experiment in a line: far-Western, overlay or dot blot; DDR2-Fc, DDR1-Fc or Fc (20 μg per spot) blotted on nitrocellulose; biotinylated C1qA peptide (200 nM) in 3% skim milk, RT, 2 h; detected with streptavidin.

As a reminder, the Kd is a measure of binding affinity in units of concentration. In turn, B1 showed a Kd with human C1q protein of 183 nM.

B2: C1qA peptide (Biotin-GSKGEQGEPGAPGI) (peptide)
peptide: Biotin-GSKGEQGEPGAPGI
notes: first two residues of the printed peptide; also called C1q collagen tail peptide; biotinylated C1qA peptide; source: synthetic peptide (GenScript)
Turning to B2, the binding result in experiment [1] and in experiment [2] was “binds” in each case.
